Experimental data reported in patent publication US20050066381A1.

What was measured:
[1] = system: recombinant Ser-67-Ala inhibitor-1 isolated from E. coli
[2] = system: recombinant wildtype inhibitor-1 isolated from E. coli
[3] = biological target: PP1c (PP1cα), protein phosphatase 1 catalytic subunit; test: PP1c pull-down from adenovirus-infected cardiomyocytes (I-1 + PKCα wt), I-1 Western blot, quantified
[4] = biological target: PP1c (PP1cα), protein phosphatase 1 catalytic subunit; test: PP1c pull-down from adenovirus-infected cardiomyocytes (I-1 + PKCα dn), I-1 Western blot, quantified

Chain of PP1c (PP1cα), protein phosphatase 1 catalytic subunit (P62138 2-330): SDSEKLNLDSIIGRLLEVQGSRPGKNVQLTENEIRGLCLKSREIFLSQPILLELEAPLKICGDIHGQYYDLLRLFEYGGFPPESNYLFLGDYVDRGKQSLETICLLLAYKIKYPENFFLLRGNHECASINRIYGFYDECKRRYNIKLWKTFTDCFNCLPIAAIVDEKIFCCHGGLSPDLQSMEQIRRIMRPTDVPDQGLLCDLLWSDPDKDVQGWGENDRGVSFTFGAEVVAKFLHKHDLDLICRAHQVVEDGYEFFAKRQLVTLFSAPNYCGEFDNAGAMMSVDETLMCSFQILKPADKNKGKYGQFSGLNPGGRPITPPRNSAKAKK

| Substance | in vitro phosphorylation with 32P-ATP, relative to wildtype I-1 [1] | in vitro phosphorylation with 32P-ATP, SDS-PAGE and quantification of radioactivity [2] | reduction of I-1 interaction with PP1c when wildtype PKCα is overexpressed [3] | increase of I-1/PP1c complex formation when dominant negative PKCα is expressed [4] |
| --- | --- | --- | --- | --- |
| protein kinase C isolated from rabbit heart muscle | approximately 50% less phosphorylation by PKC compared with equal amounts of wildtype protein | Wildtype I-1 protein was directly phosphorylated in vitro in a time-dependent manner at stoichiometric levels by PKC |  |  |
| Inhibitor-1 (I-1), expressed from adenovirus in neonatal rat cardiomyocytes |  |  | 50 % reduction | > 70 % increase |
